Consider four molecules from patent US20250243263A1 (VOYAGER THERAPEUTICS, published 2025).

Where no end group is shown, it is not given here. [ ]: non-standard residue; d: D form. pT = C[C@@H](OP(=O)(O)O)[C@H](N)C(=O)O Where only a bound is given, the exact number is not on record here.

Experiment [1] addresses T1, AT8 peptide (amino acids 195-215 of tau) (human, phospho-peptide, phosphorylated sites not stated in the example; immobilized on streptavidin tips).
T1 peptide: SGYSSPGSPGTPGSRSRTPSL
Description: BLI (Octet), phospho-peptide on streptavidin tips. The procedure:
Briefly, phospho-peptides were immobilized on streptavidin biosensor tips and the binding ability of each antibody was assessed using an eight-point concentration gradient.
A general note: Biolayer interferometry detects binding as a change in optical thickness at a sensor tip.

Experiment [2] concerns the target T2, iPHF (UniProt P10636-8 2-441, limits assumed).
T2 construct: also called iPHF tau
Description: BLI (Octet), antibody on biosensor tip, iPHF in solution. The procedure: Anti-human tau antibodies were assessed for affinity for iPHF by Octet (ForteBio, Menlo Park, CA) analysis. A set of recombinant human IgG1 antibodies were prepared with clone-specific variable domain pairs selected from those presented in Table 1 and human IgG1 constant domains. Candidate antibodies were immobilized on biosensor tips (ForteBio) in kinetic buffer (ForteBio). Biosensor tips were then washed before introduction of a solution of iPHF in kinetic buffer for analysis of association and dissociation with candidate antibodies.

Experiment [3] deals with T3, AT270 peptide (pT181; Tau172-186) (human).
T3 peptide: PAKTPPAPK[pT]PPSSG
Description: one point ELISA. A general note: An ELISA detects its analyte on a solid surface through an enzyme-linked reagent.

The target of experiment [4] is T4, Tau191-214 phospho-peptide (pS199) (human, phosphoserine at S199 of tau (peptide position 9); SCBio-4PEG label).
T4 construct: also called pS199 peptide
T4 sequence (peptide, as listed by the source): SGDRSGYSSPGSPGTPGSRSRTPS
Description: BLI.

Experiment [5] concerns the target T5, enriched paired helical filament tau protein (ePHF; sarkosyl insoluble tau) (human, UniProt P10636 2-758). Description: direct ELISA, ePHF coated. How it is done: (§1) A set of recombinant human IgG1 antibodies were prepared with clone-specific variable domain pairs selected from those presented in Table 1 and human IgG1 constant domains. These candidate antibodies were analyzed for binding to ePHF and specificity for ePHF over wild type tau by direct ELISA.
(§2) For direct ePHF and wildtype tau ELISA, plates were first coated with ePHF or wild type tau. Antigen solutions were prepared in PBS and 50 μL were pipetted into each well. Plates were covered and incubated for one hour at 37° C. or overnight at 4° C. Plates were then washed and blocked by addition of 150 μl of blocking buffer to each well and incubated one hour at room temperature. Plates were then washed before addition of serially diluted candidate antibody samples prepared in blocking buffer. Detection of candidate antibody binding was carried out by washing plates and adding a solution of enzyme-labeled secondary antibody in blocking buffer to each well. Secondary antibody binding was detected by addition of substrate and spectrophotometric analysis of resulting reaction product.

Experiment [6] addresses T5, enriched paired helical filament tau …. Put plainly: cell-based or functional assay.
For experiment [7], the target named is T2, iPHF. Put plainly: follow up selectivity analysis, iPHF over wild-type tau; method not stated.
For experiment [8], the target named is T5, enriched paired helical filament tau …. Put plainly: follow up selectivity analysis, ePHF over wild-type tau; method not stated.
Experiment [9] deals with Tau191-214 phospho-peptide (pT205) (human, phosphothreonine at T205 of tau (peptide position 15); SCBio-4PEG label). Put plainly: one point ELISA. From the text: (§3) One-point ELISA was used to determine differential binding based on the individual phosphorylation patterns of each peptide. OD values (450 nm) were collected (as shown in Table 13), where a stronger positive signal is shown as a higher OD value, which is indicative of increased binding.

The target in experiment [10] is Tau191-214 phospho-peptide (pS202) (human, phosphoserine at S202 of tau (peptide position 12); SCBio-4PEG label). Put plainly: one point ELISA.
Excerpt: as §3

The target in experiment [11] is T2, iPHF. Put plainly: SPR (Biacore 8K).
The target in experiment [12] is T4, Tau191-214 phospho-peptide (pS199). Description: one point ELISA.
Excerpt: as §3

The target of experiment [13] is T6, pS199-old (SCBio-4PEG-Peptide, Tau191-214) (human, phosphoserine at S199 of tau by the row label; SCBio-4PEG label).
T6 construct: The suffix -old is not explained
Description: one point ELISA.
Excerpt: as §3

The target of experiment [14] is Tau191-214 phospho-peptide (pS199/pS202) (human, phosphoserine at S199 and S202 of tau (peptide positions 9, 12); SCBio-4PEG label). Put plainly: one point ELISA.
Excerpt: as §3

Experiment [15] concerns the target Tau191-214 phospho-peptide (pS199/pT205) (human, phosphoserine at S199 and phosphothreonine at T205 of tau (peptide positions 9, 15); SCBio-4PEG label). Description: one point ELISA.
Excerpt: as §3

The target of a further experiment is T7, Tau(pS404) peptide (human, phosphoserine at S404 of tau (peptide position 18)).
T7 construct: also called TauS404 peptide; TauS404
T7 peptide: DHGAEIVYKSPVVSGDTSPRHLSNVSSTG
Description: competitive ELISA on TauS404 peptide, competitor AC04 peptide.

Another experiment concerns the target T8, wild type tau (human, UniProt P10636 2-758).
T8 construct: also called WT
Description: direct ELISA, wild type tau coated. The procedure: as §1, §2

T2 sequence (P10636 other isoform, or with tags, fused parts or gaps limits assumed): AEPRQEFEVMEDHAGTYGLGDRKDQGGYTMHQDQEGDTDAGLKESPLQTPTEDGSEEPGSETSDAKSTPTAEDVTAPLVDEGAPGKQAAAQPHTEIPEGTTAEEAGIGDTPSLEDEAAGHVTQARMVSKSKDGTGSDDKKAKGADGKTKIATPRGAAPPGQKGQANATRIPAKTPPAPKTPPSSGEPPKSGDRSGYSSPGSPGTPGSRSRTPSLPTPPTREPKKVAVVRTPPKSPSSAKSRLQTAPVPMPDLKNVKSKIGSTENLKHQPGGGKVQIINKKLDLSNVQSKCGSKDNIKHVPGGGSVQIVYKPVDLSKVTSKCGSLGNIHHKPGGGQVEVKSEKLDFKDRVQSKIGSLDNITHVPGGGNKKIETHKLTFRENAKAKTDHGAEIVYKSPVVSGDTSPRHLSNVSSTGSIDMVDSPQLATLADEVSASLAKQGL
T5 sequence (P10636 other isoform, or with tags, fused parts or gaps limits assumed): as above
T8 sequence (P10636 other isoform, or with tags, fused parts or gaps limits assumed): as above

B1: VY020 (antibody, V domains shown)
VH: EVQLVESGGGLVQPGGSLRLSCAASGFTFSSYSMNWVRQAPGKGLEWISYISSSNSTIKYADSVKGRFTISRDNAKNSLYLQMNSLRDEDTAVYYCARRSLGDYWGQGTLVIVSS
VL: EIVLTQSPATLSLSPGERATLSCRASQSVSSYLAWYLQKPGQAPRLLIYDVSNRATGIPARFSGSGSGTDFTLTISRLEPEDFAVYYCQQRRNWPYTFGQGTKLEIK
B1: the binding result in [1], in [3] and in experiment [4] was “no binding” each time. Moreover, the Kd (in general, the free concentration of one partner at which half of the binding sites on the other are occupied at equilibrium, for simple one-to-one binding) with iPHF [2] worked out at 2.6 nM.

B2: VY011 (antibody, V domains shown)
VH: QVQLQESGPGLVKPSETLSLTCTVSGGSISNYYWTWIRQPAGKGLEWIGRVYTSGSANYNPSLKSRVTMSVDTSKNQFSLTLSSVTAADTAVYYCARDRGLYYWGQGTLVTVSS
VL: DIVMTQTPLSSLVTLGQPASISCRSSQSLVHSDGNTYLSWLQQRPGQPPRLLIYKISKRFFGVPDRFSGSGAGTDFTLKINRVEAEDVGIYYCMQATQFPLTFGGGTKVEIK
notes: also called VY0I1; VY0111 (misprints in the text)
In the case of B2, the results for the Kd (in experiment [1]; in the experiment with iPHF [2]; with iPHF [11]) were 0.0089 nM, 2 nM and 0.238 nM, respectively. In addition, in [5], the EC50 (as a rule, the midpoint of the concentration-response curve) was found to be 0.03 nM. Moreover, in experiment [3], the binding result was “no binding”. The “Average IC50 (nM) for inhibiting tau aggregation after immunodepletion of ePHF (tau RD Biosensor cells)” value in experiment [6] was determined as 18.1 nM. Moreover, the “selectivity iPHF:WT” value with iPHF [7] was greater than 108 fold. The “selectivity ePHF:WT” value in experiment [8] was greater than 137 fold. Besides, the “OD (450 nm)” value in experiment [9] and in [10] was 0.06 OD450 each time.

B3: VY003 (antibody, V domains shown)
VH: EVQMVESGGGLVQPGGSLTLSCAASGFTFSSYRMNWVRQAPGKGLEWVSYISSSRSAIYYADSVKGRFTISRDNAKNSLYLQMNSLRDEDTAVYYCATLGIGYWGQGTLVTVSS
VL: DIVMTQTPLSSPVTLGQPASISCRSSQSLVHSDGNTYLSWLQQRPGQPPRLLIYKISNRFSGVPDRFSGSGAGTDFTLKITRVEAEDVGIYYCMQVTQFPRTFGQGTKVEIR
In the case of B3, the Kd in experiment [1] worked out at 0.0124 nM; with iPHF [2], 4.6 nM. The EC50 in experiment [5] worked out at 0.06 nM. Moreover, the “OD (450 nm)” value in [9] was determined as 0.06 OD450; in experiment [12], 0.065 OD450; in experiment [13] it was 0.062 OD450; in [10], 0.065 OD450; in [14], 0.082 OD450; in [15] it was 0.119 OD450.

B4: VY014 (antibody, V domains shown)
VH: EVQLVESGGGLVQPGGSLRLSCAASGFTFNNYDMHWVRQAAGKGLEWVSTIGAAGDTYYPGSVKGRFIISRENAKNSLYLQMNSLRAGDTAVYYCARAGETLEGATIGYYYGMDVWGQGTTVTVSS
VL: DILMTQSPLSLPVTPGEPASISCRSSQSLLHSNGYNYLDWYLQKPGQSPQLLIYLGSNRASGVPDRFSGSGSGTDFTLKFSRVEAEDVGLYYCMQALQIPLTFGGGTKVEIK
B4 yielded a Kd with iPHF [2] of 5.3 nM. Moreover, the EC50 in experiment [5] turned out to be 6.23 nM; in the experiment with wild type tau, 0.04 nM. Further, the binding result with Tau(pS404) peptide was “binds”.
